This test concerns the target T1, LgTrip 3092 (SEQ ID NO: 19).
T1 construct: also called LgTrip 3092 His; ATG 3092
In words: tripartite luminescence complementation (with pep86 as third part).

GSMLFRVTINS [SmTrip9 pep245]: the binding result was “binds”.

The record behind these values is patent publication US20200270586A1 (PROMEGA, published 2020).
